PMC3267021, “The Molecular Basis for the Endocytosis of Small R-SNAREs by the Clathrin Adaptor CALM” (Cell, 2011)
“And” between values parts separate entries of the source, which are not always exact repeats. Identical values can stand only once. Blank lines part the entries; values can stand above or below the binder they belong to.

B8: GST-VAMP8 (VAMP8 residues 1-76, full cytoplasmic portion) (domain or fragment, mouse, UniProt O70404 1-76, looked up)
chain: MEEASGSAGNDRVRNLQSEVEGVKNIMTQNVERILSRGENLDHLRNKTEDLEATSEHFKTTSQKVARKFWWKNVKM
notes: VAMP8, mouse, residues 1-76 (full cytoplasmic portion); Construct pGEX 4T2 VAMP8_(1-76); GST of pGEX vectors is N-terminal (surmise); also called VAMP8_(1-76); wt GSTVAMP8; source: E. coli BL21(DE3) pLysS, purified (glutathione sepharose, S200 gel filtration)
B9: GSTVAMP8 K24AM27A (domain or fragment, mouse, UniProt O70404 1-76, looked up)
chain: MEEASGSAGNDRVRNLQSEVEGVANIATQNVERILSRGENLDHLRNKTEDLEATSEHFKTTSQKVARKFWWKNVKM
notes: VAMP8, mouse, residues 1-76; pGEX 4T2 VAMP8_(1-76) (mouse) 'and mutants thereof'; also called K24AM27A VAMP8; Lys24AlaMet27Ala mutant of VAMP8; source: E. coli BL21(DE3) pLysS, purified (glutathione sepharose, S200 gel filtration)

How the values were obtained:
[1] = target: T1, CALM_(ANTH(1-264)) part of the CALM_(ANTH(1-264)):VAMP8_((11-41)) chimera (rat, UniProt O55012 1-264); experiment: crystal structure; CALM_(ANTH(1-264)):VAMP8_((11-41)) chimera on one chain, GST cleaved; sitting drops at 16°C, 100 mM phosphate-citrate pH 4.2, 200 mM NaCl, 50% (v/v) PEG-200; 2.0 Å; PDB 3ZYM; details: both partners purified
T1 construct: PDB 3ZYM), VAMP8 11-41; also called CALM_(ANTH) in the chimeric complex; source: E. coli BL21(DE3) pLysS, purified (glutathione sepharose, thrombin cleavage of GST, S200 gel filtration); not shown: GST, N-terminal, cleaved
T1 sequence (looked up): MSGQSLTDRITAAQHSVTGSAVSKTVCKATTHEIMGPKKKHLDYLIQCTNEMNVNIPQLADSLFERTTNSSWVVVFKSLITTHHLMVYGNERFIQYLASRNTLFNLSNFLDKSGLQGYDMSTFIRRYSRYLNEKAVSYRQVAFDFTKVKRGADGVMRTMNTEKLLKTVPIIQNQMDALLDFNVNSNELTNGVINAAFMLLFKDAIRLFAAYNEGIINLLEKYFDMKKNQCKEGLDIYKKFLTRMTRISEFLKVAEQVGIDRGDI

GST-SNARE (WT or mutant) = experiment: ITC; VPiTC; 2 mM His6MycCALM_(ANTH) (WT or mutant) or GST cleaved Epsin_(ENTH) titrated in 37 injections of 4-8 μL into 0.15 mM GST-SNARE in the cell; 100 mM HEPES pH 7.4, 150 mM NaCl, 4 mM DTT; legends give a representative run with SEM of the fit, the text the average of all runs
GSTVAMP8 K24AM27A = target: B9; experiment: pull-down; SNARE complex formation: GST-VAMP8 incubated with a three fold molar excess of SNAP23 and syntaxin3 at 4°C for 48 hr in 20 mM HEPES pH 7.4, 500 mM NaCl, 4 mM DTT, 0.5% NP-40; purified on glutathione-sepharose, then S200 gel filtration; details: both partners purified
[2] = target: B8; experiment: as above; details: both partners purified
[3] = target: T2, His6MycCALM_(ANTH) (CALM ANTH domain, residues 1-289) (rat, UniProt O55012 1-289); experiment: ITC; VPiTC; 2 mM His6MycCALM_(ANTH) (WT or mutant) or GST cleaved Epsin_(ENTH) titrated in 37 injections of 4-8 μL into 0.15 mM GST-SNARE in the cell; 100 mM HEPES pH 7.4, 150 mM NaCl, 4 mM DTT; legends give a representative run with SEM of the fit, the text the average of all runs; details: both partners purified
T2 construct: source: E. coli BL21(DE3) pLysS, purified (Ni2+-NTA agarose, S200 gel filtration)
T2 sequence (looked up): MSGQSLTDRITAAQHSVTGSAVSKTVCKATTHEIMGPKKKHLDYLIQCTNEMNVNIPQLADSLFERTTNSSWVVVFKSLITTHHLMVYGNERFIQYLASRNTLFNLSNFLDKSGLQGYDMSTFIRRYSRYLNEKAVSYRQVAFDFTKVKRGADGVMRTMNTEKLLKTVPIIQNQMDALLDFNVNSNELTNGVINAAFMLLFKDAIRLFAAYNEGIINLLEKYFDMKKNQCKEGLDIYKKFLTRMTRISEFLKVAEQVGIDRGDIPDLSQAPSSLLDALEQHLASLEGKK

[4] = target: the molecule itself; experiment: SEC-MALS; analytical S200 10/300 column, 20 mM HEPES pH 7.4, 120 mM NaCl, 4 mM DTT, 0.5 mL/min, inline MALS
SNAP23, GST cleaved = target: T3, SNAP23, GST cleaved (human, UniProt O00161 1-211); experiment: pull-down; SNARE complex formation: GST-VAMP8 incubated with a three fold molar excess of SNAP23 and syntaxin3 at 4°C for 48 hr in 20 mM HEPES pH 7.4, 500 mM NaCl, 4 mM DTT, 0.5% NP-40; purified on glutathione-sepharose, then S200 gel filtration; details: both partners purified
T3 construct: SNAP23, human; Construct pGEX 4T1 SNAP23 (human); source: E. coli BL21(DE3) pLysS, purified (glutathione sepharose, thrombin cleavage of GST); not shown: GST, N-terminal, cleaved
T3 sequence (looked up): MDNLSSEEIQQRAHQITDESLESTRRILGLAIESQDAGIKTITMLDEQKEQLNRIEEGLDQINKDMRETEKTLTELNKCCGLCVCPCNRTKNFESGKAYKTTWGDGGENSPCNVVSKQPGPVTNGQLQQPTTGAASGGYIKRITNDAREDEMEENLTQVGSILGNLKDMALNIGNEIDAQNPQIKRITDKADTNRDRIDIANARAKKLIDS

[5] = target: T4, CALM_(ANTH(1-289)), GST cleaved (rat, UniProt O55012 1-289); experiment: SPR; liposome-based SPR, Biacore 3000, L1 chip; PC/PE + 5% DGS-NTA(Ni) liposomes with captured His12-tagged VAMP8 (600RU); GST cleaved CALM_(ANTH) as analyte, 10 nM to 50 μM, one minute injections at 50 μl/min; PC/PE binding subtracted; details: both partners purified
T4 construct: analyte of the liposome-based SPR and crystallised as 3ZYK; also called GST cleaved CALM_(ANTH); source: E. coli BL21(DE3) pLysS, purified (glutathione sepharose, thrombin cleavage of GST, S200 gel filtration); not shown: GST, N-terminal, cleaved
T4 sequence (looked up): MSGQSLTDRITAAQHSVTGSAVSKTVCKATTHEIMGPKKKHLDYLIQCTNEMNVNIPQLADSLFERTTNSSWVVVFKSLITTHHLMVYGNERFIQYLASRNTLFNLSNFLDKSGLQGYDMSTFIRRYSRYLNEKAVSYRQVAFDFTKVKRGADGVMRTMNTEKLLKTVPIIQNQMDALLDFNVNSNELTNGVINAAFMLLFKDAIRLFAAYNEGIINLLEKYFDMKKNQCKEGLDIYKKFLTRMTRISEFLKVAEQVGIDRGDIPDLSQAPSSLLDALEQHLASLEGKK

B4: GST-VAMP3 (VAMP3 residues 1-81) (domain or fragment)
chain: MSTGVPSGSSAATGSNRRLQQTQNQVDEVVDIMRVNVDKVLERDQKLSELDDRADALQAGASQFETSAAKLKRKYWWKNCK
Kd [3]: 46 µM

B7: CALM_(ANTH(1-264)), GST cleaved (domain or fragment, rat, UniProt O55012 1-264, looked up)
chain: MSGQSLTDRITAAQHSVTGSAVSKTVCKATTHEIMGPKKKHLDYLIQCTNEMNVNIPQLADSLFERTTNSSWVVVFKSLITTHHLMVYGNERFIQYLASRNTLFNLSNFLDKSGLQGYDMSTFIRRYSRYLNEKAVSYRQVAFDFTKVKRGADGVMRTMNTEKLLKTVPIIQNQMDALLDFNVNSNELTNGVINAAFMLLFKDAIRLFAAYNEGIINLLEKYFDMKKNQCKEGLDIYKKFLTRMTRISEFLKVAEQVGIDRGDI
notes: source: E. coli BL21(DE3) pLysS, purified (glutathione sepharose, thrombin cleavage of GST, S200 gel filtration); not shown: GST, N-terminal, cleaved
stoichiometry N [4]: 2

Binder: B8
binding result (SNAP23, GST cleaved): binds
Kd [3]: ~18 µM and 17 µM and 20 µM

Binder: B9
binding result (SNAP23, GST cleaved): binds

Continued, values first:

binding result [1]: binds
B1: VAMP8_((11-41)) part of the CALM_(ANTH(1-264)):VAMP8_((11-41)) chimera (domain or fragment, mouse, UniProt O70404 11-41, looked up)
chain: DRVRNLQSEVEGVKNIMTQNVERILSRGENL
notes: VAMP8, mouse, residues 11-41; also called VAMP8 helix; residues 11-41 of VAMP8; source: E. coli BL21(DE3) pLysS, purified (as part of the chimera)

stoichiometry N (GST-SNARE (WT or mutant)): 0.9 to 1.1
B2: His6MycCALM_(ANTH) (CALM ANTH domain, residues 1-289) (domain or fragment)
chain: MSGQSLTDRITAAQHSVTGSAVSKTVCKATTHEIMGPKKKHLDYLIQCTNEMNVNIPQLADSLFERTTNSSWVVVFKSLITTHHLMVYGNERFIQYLASRNTLFNLSNFLDKSGLQGYDMSTFIRRYSRYLNEKAVSYRQVAFDFTKVKRGADGVMRTMNTEKLLKTVPIIQNQMDALLDFNVNSNELTNGVINAAFMLLFKDAIRLFAAYNEGIINLLEKYFDMKKNQCKEGLDIYKKFLTRMTRISEFLKVAEQVGIDRGDIPDLSQAPSSLLDALEQHLASLEGKK

binding result (GSTVAMP8 K24AM27A): binds
binding result [2]: binds
B3: syntaxin3 (residues 195-253), GST cleaved (domain or fragment, human, UniProt Q13277 195-253, looked up)
chain: EGRHKDIVRLESSIKELHDMFMDIAMLVENQGEMLDNIELNVMHTVDHVEKARDETKKA
notes: syntaxin3, human, residues 195-253; Construct pGEX 4T1syntaxin3_((195-253)) (human); also called syntaxin3_((195-253)); Synatxin3(195–253); source: E. coli BL21(DE3) pLysS, purified (glutathione sepharose, thrombin cleavage of GST); not shown: GST, N-terminal, cleaved

Kd [3]: 23 µM
B5: GSTVAMP8 L44PL51P (domain or fragment, mouse, UniProt O70404 1-76, looked up)
chain: MEEASGSAGNDRVRNLQSEVEGVKNIMTQNVERILSRGENLDHPRNKTEDPEATSEHFKTTSQKVARKFWWKNVKM
notes: VAMP8, mouse, residues 1-76; source: E. coli BL21(DE3) pLysS, purified (glutathione sepharose, S200 gel filtration)

Kd [3]: 20 µM
B6: GST-VAMP8_(10-41) (domain or fragment, mouse, UniProt O70404 10-41, looked up)
chain: NDRVRNLQSEVEGVKNIMTQNVERILSRGENL
notes: VAMP8, mouse, residues 10-41 (N-terminal half of the SNARE motif); Construct pGEX 4T2 VAMP8_((10-41)); also called residues 10-41 of VAMP8; source: E. coli BL21(DE3) pLysS, purified (glutathione sepharose, S200 gel filtration)

Kd [5]: 0.9 µM
B10: VAMP8_(1-76)His12, GST cleaved (domain or fragment, mouse, UniProt O70404 1-76, looked up)
chain: MEEASGSAGNDRVRNLQSEVEGVKNIMTQNVERILSRGENLDHLRNKTEDLEATSEHFKTTSQKVARKFWWKNVKM
notes: VAMP8, mouse, residues 1-76; Construct pGEX 4T2 VAMP8_((1-76))His12; also called His12-tagged VAMP8; His-tagged VAMP8; source: E. coli BL21(DE3) pLysS, purified (glutathione sepharose, thrombin cleavage of GST, Ni2+-NTA agarose, dialysis); not shown: GST, N-terminal, cleaved
